This data set relates to LL-37.

Take Pseudomonas aeruginosa elastase: the “degradation of LL-37 (SDS-PAGE) and loss of bactericidal activity against E. faecalis” value was “LL-37 is degraded and inactivated by P. aeruginosa elastase”.

For the origin of these results see patent publication US20040028672.
